From article PMC6640040 (Nature, 2016) come the findings set out here.

Assay in all cases: pull-down
Assay [1] deals with ClpP(6His)^TRAP (B. subtilis, UniProt P80244 1-197, Ser98Ala).
Assay [2] addresses wild-type ClpP(6His) (B. subtilis, UniProt P80244 1-197).
Assay [3] addresses T1, MecA (B. subtilis, UniProt P37958 1-218).
T1 sequence (looked up): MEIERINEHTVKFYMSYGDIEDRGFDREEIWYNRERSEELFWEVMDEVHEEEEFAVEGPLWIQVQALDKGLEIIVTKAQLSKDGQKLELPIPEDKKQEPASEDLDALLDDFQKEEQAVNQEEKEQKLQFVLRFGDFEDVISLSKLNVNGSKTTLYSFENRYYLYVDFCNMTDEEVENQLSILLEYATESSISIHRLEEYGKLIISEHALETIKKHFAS

Substitutions are numbered along the chain they refer to.

B1: endogenous ClpP (enzyme)
chain: not shown
On to B1, for which the binding result in assay [1] and in assay [2] was “binds” throughout.

B2: ClpC^NTD(1–150) (domain or fragment, B. subtilis, UniProt P37571 1-150, looked up)
chain: MMFGRFTERAQKVLALAQEEALRLGHNNIGTEHILLGLVREGEGIAAKALQALGLGSEKIQKEVESLIGRGQEMSQTIHYTPRAKKVIELSMDEARKLGHSYVGTEHILLGLIREGEGVAARVLNNLGVSLNKARQQVLQLLGSNETGSS
As to B2, the binding result in assay [3] is recorded as “binds”.

B3: ClpC NTD^EA mutant (domain or fragment, B. subtilis, UniProt P37571 1-150, looked up)
chain: B2 chain with E32A, E106A
For the molecule B3, the binding result in assay [3] is “binds”.
